biological target: EphA4 Fc (EphA4 receptor extracellular domain fused to a human Fc region); experiment: inhibition of ephrin-A5 AP binding to EphA4
Sequence (Q03137 20-547): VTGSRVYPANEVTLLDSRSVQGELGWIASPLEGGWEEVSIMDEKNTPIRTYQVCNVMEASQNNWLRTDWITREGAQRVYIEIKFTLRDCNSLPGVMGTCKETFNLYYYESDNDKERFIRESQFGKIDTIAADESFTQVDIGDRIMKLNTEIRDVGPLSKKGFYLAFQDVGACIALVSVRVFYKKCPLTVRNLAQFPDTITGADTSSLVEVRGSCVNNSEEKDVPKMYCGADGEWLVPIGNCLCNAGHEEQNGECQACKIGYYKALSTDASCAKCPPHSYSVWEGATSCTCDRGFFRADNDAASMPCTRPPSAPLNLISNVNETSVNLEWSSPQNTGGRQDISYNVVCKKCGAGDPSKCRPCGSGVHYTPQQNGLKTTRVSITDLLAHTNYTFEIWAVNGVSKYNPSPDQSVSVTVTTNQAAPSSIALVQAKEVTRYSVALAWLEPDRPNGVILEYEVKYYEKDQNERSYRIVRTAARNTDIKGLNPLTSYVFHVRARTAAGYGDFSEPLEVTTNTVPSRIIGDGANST

concentration that almost completely inhibits ephrin-A5 AP binding	Substance
100 µM	synthetic VTM peptide (…)
1 µM	synthetic KYL peptide (…)
10 µM	synthetic APY peptide (…)

Reference: patent EP1852441B1, “Agents that modulate EPH receptor activity” (The Burnham Institute, priority 2002, dated 2004)
